According to US20210032312A1 (Janssen / Centocor, published 2021):
Changes are numbered by the printed parent chain.

B1: P283AR9P1362_D6 (designed binder)
chain: LPAPKNLVVSRVTEDSARLSWAKRPGAFDSFLIQYQESEKVGEAIVLTVPGSERSYDLTGLKPGTEYTVSIYGVDVKYDIDSRPISSNPLSAIFTT
notes: FN3 domain
B2: P283AR9P1362_E9 (designed binder)
chain: B1 chain with A22V, K23P, R24S, G26W, A27G
notes: FN3 domain
B3: P283AR9P1362_F2 (designed binder)
chain: B1 chain with A22R, R24K, P25D, G26H, A27P
notes: FN3 domain
B4: P283AR9P1362_G11 (designed binder)
chain: B1 chain with A22R, R24E, P25A, G26T, A27S
notes: FN3 domain
B5: P283AR9P1362_F12 (designed binder)
chain: B1 chain with K23R, R24N, P25I, G26T, A27S
notes: FN3 domain
B6: P282BR9P1357_D12 (designed binder)
chain: LPAPKNLVVSRVTEDSARLSWGQYITAFSFDSFLIQYQESEKVGEAIVLTVPGSERSYDLTGLKPGTEYTVSIYGVDVAWFQGKPTWSNPLSAIFTT
notes: FN3 domain
B7: P283BR9P1363_A10 (designed binder)
chain: LPAPKNLVVSRVTEDSARLSWQRADDILPYFDSFLIQYQESEKVGEAIVLTVPGSERSYDLTGLKPGTEYTVSIYGVDVKYDIDSRPISSNPLSAIFTT
notes: FN3 domain
B8: P282BR9P1357_A9 (designed binder)
chain: LPAPKNLVVSRVTEDSARLSWKANRTTDLHFDSFLIQYQESEKVGEAIVLTVPGSERSYDLTGLKPGTEYTVSIYGVDVQYDGQQPLYSNPLSAIFTT
notes: FN3 domain
B9: P282BR9P1357_B2 (designed binder)
chain: LPAPKNLVVSRVTEDSARLSWNPSEDPQRFDSFLIQYQESEKVGEAIVLTVPGSERSYDLTGLKPGTEYTVSIYGVDVKWEGNRPVASNPLSAIFTT
notes: FN3 domain
B10: P282BR9P1357_C10 (designed binder)
chain: B9 chain with N22W, P23S, S24N, E25D, D26N, P27R, Q28P, R29I
notes: FN3 domain
B11: P282BR9P1357_E5 (designed binder)
chain: LPAPKNLVVSRVTEDSARLSWWPRKYQRPFDSFLIQYQESEKVGEAIVLTVPGSERSYDLTGLKPGTEYTVSIYGVDIEWIGNRPIASNPLSAIFTT
notes: FN3 domain
B12: P282BR9P1357_D2 (designed binder)
chain: LPAPKNLVVSRVTEDSARLSWIKDGHPRHFDSFLIQYQESEKVGEAIVLTVPGSERSYDLTGLKPGTEYTVSIYGVDVVYDRGQLISSNPLSAIFTT
notes: FN3 domain
B13: P283BR9P1363_C8 (designed binder)
chain: LPAPKNLVVSRVTEDSARLSWAKTSDLHPLFDSFLIQYQESEKVGEAIVLTVPGSERSYDLTGLKPGTEYTVSIYGVDVKWEGNRPVASNPLSAIFTT
notes: FN3 domain
B14: P283BR9P1363_B6 (designed binder)
chain: B13 chain with A22Q, K23R, T24H, L27A
notes: FN3 domain
B15: P283BR9P1363_E4 (designed binder)
chain: B13 chain with A22I, T24S, S25E, D26T, L27S, H28Q, L30A
notes: FN3 domain
B16: P282BR9P1357_C4 (designed binder)
chain: B13 chain with K5N, A22P, K23F, T24V, D26Q, L27N, H28K, L30H
notes: FN3 domain
B17: P282BR9P1357_H3 (designed binder)
chain: B13 chain with A22K, T24R, S25E, D26Y, L27Q, H28D, L30G
notes: FN3 domain

Target: T1, human CD8 alpha (CD8A) on primary human CD8+ T cells (human, UniProt P01732 22-235)
T1 construct: whole, on cells; also called hCD8A
Assay: flow cytometry, human CD8+ T cells, 2 uM FN3
Experimental: (§1) Binding of the 190 ELISA hits to human and cynomologous monkey primary CD8 T cells was assessed by flow cytometry. The FN3 domain molecules were diluted to 2 μM and 0.2 μM in PBS and incubated with human or cynomologous monkey CD8+ T cells in 96-well format. After 1 hour at 4 C, the cells were washed once with PBS and then resuspended with an anti-FN3 domain antibody (PAB25) solution. Following this incubation, the cells were washed twice with PBS and a PE conjugated secondary antibody and a viability dye were added. Finally, cells were washed and resuspended in PBS for flow cytometric analysis using a BD Canto Instrument. Cells were gating on live cells and median fluorescence intensity of the bound Centyrins (PE channel) was calculated using Cytobank software.

T1 sequence (P01732 22-235): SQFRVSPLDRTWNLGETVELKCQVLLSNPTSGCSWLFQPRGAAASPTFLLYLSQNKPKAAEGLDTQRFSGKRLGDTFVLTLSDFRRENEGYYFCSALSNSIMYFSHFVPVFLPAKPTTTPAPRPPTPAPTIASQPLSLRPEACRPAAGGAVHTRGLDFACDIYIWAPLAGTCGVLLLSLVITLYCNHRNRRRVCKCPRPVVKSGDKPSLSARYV

| Binder | Human T-cell Binding 2 uM (MFI) |
| --- | --- |
| B1 | 13700 |
| B2 | 6180 |
| B3 | 9620 |
| B4 | 12700 |
| B5 | 8970 |
| B6 | 15300 |
| B7 | 7890 |
| B8 | 3120 |
| B9 | 5930 |
| B10 | 9780 |
| B11 | 6730 |
| B12 | 9610 |
| B13 | 16500 |
| B14 | 14500 |
| B15 | 10800 |
| B16 | 16800 |
| B17 | 11100 |

Target: T2, In house human CD8A-Fc (human, UniProt P01732 22-182, limits assumed)
T2 construct: Captured on goat anti-human Fc on a ProteOn GLC chip; also called hCD8A-Fc; recombinant human CD8 alpha; not shown: linker with flag (and polyhistidine) tag and Fc of human IgG1
Assay: SPR (ProteOn), captured hCD8A-Fc
Experimental: Purified anti-CD8A FN3 domains were subjected to off-rate analysis using a Proteon surface plasmon resonance instrument in order to pick clones with the slowest off-rates for further characterization.
The immobilized GAH-Fc IgG densities averaged about 6000 Response Units (Ru) with less than 1% variation among different channels. In house human CD8A-Fc was captured in vertical orientation at 3 different ligand densities, 10, 5, 2.5 μg/ml for 5 minutes at 30 ul/minute flowrate. All FN3 domains were normalized to a 3 μM concentration, and tested for binding in horizontal orientation. All 6 analyte channels were used for FN3 domains to maximize the screening throughput. The dissociation phase was monitored for 15 minutes at a flow rate of 100 μl/min using PBST as running buffer. […] Data analyses were performed using Bio-Rad ProteOn Manager software (version 3.1.0.6). Raw data were double referenced by subtraction of the interspot (empty chip surface, no protein immobilized or captured) signals to correct the non-specific binding of the FN3 domain to the pre-coated GAH-Fc IgG surface, followed by a double correction using empty channel L6 where no hCD8A-Fc was captured. The processed binding data were locally fit to a 1:1 simple Langmuir binding model to extract the koff for each FN3 domain binding to captured hCD8A-Fc.

T2 sequence (P01732 22-182 limits assumed): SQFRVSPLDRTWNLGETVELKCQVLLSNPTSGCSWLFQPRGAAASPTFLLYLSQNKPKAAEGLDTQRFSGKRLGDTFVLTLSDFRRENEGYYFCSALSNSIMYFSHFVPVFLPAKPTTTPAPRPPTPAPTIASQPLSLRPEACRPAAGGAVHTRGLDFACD

| Binder | koff [s⁻¹] |
| --- | --- |
| B1 | 2.64e-05 |
| B2 | 0.000327 |
| B3 | 0.00211 |
| B4 | 0.000102 |
| B5 | 7.28e-05 |
| B6 | 8.76e-05 |
| B7 | 0.00036 |
| B8 | 0.00059 |
| B9 | 0.0001 |
| B10 | 0.000458 |
| B11 | 0.00021 |
| B12 | 0.00105 |
| B13 | 0.000335 |
| B14 | 0.000269 |
| B15 | 0.000329 |
| B16 | 0.000127 |
| B17 | 0.000285 |

Target: T3, cynomolgus monkey CD8A on primary cynomolgus monkey CD8+ T cells (cynomolgus monkey, UniProt P01732 23-235 (human entry))
T3 construct: also called Cyno CD8alpha
Assay: flow cytometry, cyno CD8+ T cells, 0.2 uM FN3
Experimental: as §1

T3 sequence (P01732 other isoform, or with tags, fused parts or gaps limits assumed): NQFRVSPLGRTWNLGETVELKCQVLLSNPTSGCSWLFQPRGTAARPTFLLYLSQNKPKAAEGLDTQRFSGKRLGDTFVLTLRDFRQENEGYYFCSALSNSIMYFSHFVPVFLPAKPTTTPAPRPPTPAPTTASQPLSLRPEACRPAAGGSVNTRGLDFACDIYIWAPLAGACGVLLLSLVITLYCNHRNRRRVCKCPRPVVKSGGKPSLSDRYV

| Binder | Cyno T-cell Binding 0.2 uM (MFI) |
| --- | --- |
| B1 | 7720 |
| B2 | 2840 |
| B3 | 5520 |
| B4 | 6830 |
| B5 | 3790 |
| B6 | 7360 |
| B7 | 4100 |
| B8 | 1940 |
| B9 | 3840 |
| B10 | 5110 |
| B11 | 4100 |
| B12 | 2520 |
| B13 | 9080 |
| B14 | 6840 |
| B15 | 2470 |
| B16 | 7060 |
| B17 | 5700 |

Target: T1, human CD8 alpha (CD8A) on primary human …
Assay: flow cytometry, human CD8+ T cells, 0.2 uM FN3
Experimental: as §1

| Binder | Human T-cell Binding 0.2 uM (MFI) |
| --- | --- |
| B1 | 3660 |
| B2 | 2010 |
| B3 | 1370 |
| B4 | 3530 |
| B5 | 2620 |
| B6 | 3900 |
| B7 | 2750 |
| B8 | 1070 |
| B9 | 2880 |
| B10 | 2900 |
| B11 | 2590 |
| B12 | 1570 |
| B13 | 3740 |
| B14 | 3450 |
| B15 | 2500 |
| B16 | 4220 |
| B17 | 3030 |

Target: T3, cynomolgus monkey CD8A on primary …
Assay: flow cytometry, cyno CD8+ T cells, 2 uM FN3
Experimental: as §1

| Binder | Cyno T-cell Binding 2 uM (MFI) |
| --- | --- |
| B1 | 33500 |
| B2 | 15900 |
| B3 | 26400 |
| B4 | 32500 |
| B5 | 26300 |
| B6 | 40400 |
| B7 | 27800 |
| B8 | 7280 |
| B9 | 18000 |
| B10 | 24500 |
| B11 | 10600 |
| B12 | 25800 |
| B13 | 37200 |
| B14 | 37700 |
| B15 | 17700 |
| B16 | 41600 |
| B17 | 27100 |
